Test results taken from patent publication US20260232732A1 (FUNDACI INSTITUT DE RECERCA CONTRA LA LEUC MIA JOSEP …, published 2026).
Where no end group is shown, it is not given here. The star is where a group is joined. Biotin = O=C1N[C@H]2[C@H](CS[C@H]2CCCCC(=O)*)N1

T1: naked peptide MTPTDFTSPI (human)
T1 peptide: MTPTDFTSPI

T2: naked peptide TDFTSPIPNM (human)
T2 peptide: TDFTSPIPNM

T3: naked peptide TSPIPNMADD (human)
T3 peptide: TSPIPNMADD

T4: naked peptide IPNMADDYGS (human)
T4 peptide: IPNMADDYGS

T5: naked peptide MADDYGSEST (human)
T5 peptide: MADDYGSEST

T6: naked peptide DYGSESTSSM (human)
T6 peptide: DYGSESTSSM

T7: naked peptide SESTSSMEDY (human)
T7 peptide: SESTSSMEDY

T8: naked peptide TSSMEDYVNF (human)
T8 peptide: TSSMEDYVNF

T9: naked peptide SSMEDYVNFN (human)
T9 peptide: SSMEDYVNFN

T10: naked peptide SMEDYVNFNF (human)
T10 peptide: SMEDYVNFNF

T11: naked peptide MEDYVNFNFT (human)
T11 peptide: MEDYVNFNFT

T12: naked peptide YVNFNFTDFY (human)
T12 peptide: YVNFNFTDFY

T13: naked peptide FNFTDFYCEK (human)
T13 peptide: FNFTDFYCEK

T14: naked peptide TDFYCEKNNV (human)
T14 peptide: TDFYCEKNNV

T15: naked peptide YCEKNNVRQF (human)
T15 peptide: YCEKNNVRQF

T16: naked peptide KNNVRQFAS (human)
T16 peptide: KNNVRQFAS

T17: biotin-peptide MTPTDFTSPI (human, also: prints MTPTDFTSP, without I10)
T17 peptide: Biotin-MTPTDFTSPI

T18: biotin-peptide TDFTSPIPNM (human)
T18 peptide: Biotin-TDFTSPIPNM

T19: biotin-peptide TSPIPNMADD (human)
T19 peptide: Biotin-TSPIPNMADD

T20: biotin-peptide IPNMADDYGS (human)
T20 peptide: Biotin-IPNMADDYGS

T21: biotin-peptide DYGSESTSSM (human)
T21 peptide: Biotin-DYGSESTSSM

T22: biotin-peptide SESTSSMEDY (human)
T22 peptide: Biotin-SESTSSMEDY

T23: biotin-peptide TSSMEDYVNF (human)
T23 peptide: Biotin-TSSMEDYVNF

T24: biotin-peptide SSMEDYVNFN (human)
T24 peptide: Biotin-SSMEDYVNFN

T25: biotin-peptide SMEDYVNFNF (human)
T25 peptide: Biotin-SMEDYVNFNF

T26: biotin-peptide MEDYVNFNFT (human)
T26 peptide: Biotin-MEDYVNFNFT

T27: biotin-peptide YVNFNFTDFY (human)
T27 peptide: Biotin-YVNFNFTDFY

T28: biotin-peptide TDFYCEKNNV (human)
T28 peptide: Biotin-TDFYCEKNNV

T29: biotin-peptide YCEKNNVRQF (human)
T29 peptide: Biotin-YCEKNNVRQF

T30: biotin-peptide KNNVRQFAS (human)
T30 peptide: Biotin-KNNVRQFAS


Experiments:
[1] = target: T1, naked peptide MTPTDFTSPI; experiment: ELISA naked peptide; scFv 1 ug/mL; repII
Description: (§1) The peptides were synthesized naked or with a N-terminal Biotin modification with a purity of >98%. All four scFvs were verified by ELISA that can be detected with anti-His antibodies. ELISA was performed for scFv-peptide binding validation. Briefly, naked peptides were coated (50 μg/mL) in 0.58M carbonate-bicarbonate buffer pH9.5, 100 μL/well, 4° C. O/N. Then after blocking (3% BSA-PBS, 300 μL/well 37° C. 1.5 h) and washing (PBS+Tween-20 0.05% v/v (0.05% PBST), wells were incubated with each purified scFv antibody at concentration of 1 μg/mL in PBS at 37° C. 1 h. After washing (0.05% PBST), wells were incubated with secondary antibodies (goat anti-His IgG-HRP) in PBS, 37° C., 30 min. After washing, and incubation with TMB substrate, reactions were stopped with 2M HCl and reading was quantified at OD450.
(§2) Then a library of overlapping peptides were designed and constructed separately to produce 16 different peptides, covering full antigen sequence of total 48 aa. Peptide size was 10aa, with 7aa overlapping and ELISA screening of scFv against each peptide was performed in duplicate. Screening was performed using naked peptides in a standard plate or biotinylated peptides using avidin-plates.

[2] = target: T2, naked peptide TDFTSPIPNM; experiment: ELISA naked peptide; scFv 1 ug/mL; repII
Description: as §1, §2

[3] = target: T3, naked peptide TSPIPNMADD; experiment: ELISA naked peptide; scFv 1 ug/mL; repII
Description: as §1, §2

[4] = target: T4, naked peptide IPNMADDYGS; experiment: ELISA naked peptide; scFv 1 ug/mL; repII
Description: as §1, §2

[5] = target: T5, naked peptide MADDYGSEST; experiment: ELISA naked peptide; scFv 1 ug/mL; repII
Description: as §1, §2

[6] = target: T6, naked peptide DYGSESTSSM; experiment: ELISA naked peptide; scFv 1 ug/mL; repII
Description: as §1, §2

[7] = target: T7, naked peptide SESTSSMEDY; experiment: ELISA naked peptide; scFv 1 ug/mL; repII
Description: as §1, §2

[8] = target: T8, naked peptide TSSMEDYVNF; experiment: ELISA naked peptide; scFv 1 ug/mL; repII
Description: as §1, §2

[9] = target: T9, naked peptide SSMEDYVNFN; experiment: ELISA naked peptide; scFv 1 ug/mL; repII
Description: as §1, §2

[10] = target: T10, naked peptide SMEDYVNFNF; experiment: ELISA naked peptide; scFv 1 ug/mL; repII
Description: as §1, §2

[11] = target: T11, naked peptide MEDYVNFNFT; experiment: ELISA naked peptide; scFv 1 ug/mL; repII
Description: as §1, §2

[12] = target: T12, naked peptide YVNFNFTDFY; experiment: ELISA naked peptide; scFv 1 ug/mL; repII
Description: as §1, §2

[13] = target: T13, naked peptide FNFTDFYCEK; experiment: ELISA naked peptide; scFv 1 ug/mL; repII
Description: as §1, §2

[14] = target: T14, naked peptide TDFYCEKNNV; experiment: ELISA naked peptide; scFv 1 ug/mL; repII
Description: as §1, §2

[15] = target: T15, naked peptide YCEKNNVRQF; experiment: ELISA naked peptide; scFv 1 ug/mL; repII
Description: as §1, §2

[16] = target: T16, naked peptide KNNVRQFAS; experiment: ELISA naked peptide; scFv 1 ug/mL; repII
Description: as §1, §2

[17] = target: T17, biotin-peptide MTPTDFTSPI; experiment: ELISA biotin-peptide; scFv 10 ug/mL; repII
Description: as §1
(§3) ELISA with biotin-conjugated peptides (5 μg/mL) was performed very similar to described above with minor modifications.

[18] = target: T18, biotin-peptide TDFTSPIPNM; experiment: ELISA biotin-peptide; scFv 10 ug/mL; repII
Description: as §1, §3

[19] = target: T19, biotin-peptide TSPIPNMADD; experiment: ELISA biotin-peptide; scFv 10 ug/mL; repII
Description: as §1, §3

[20] = target: T20, biotin-peptide IPNMADDYGS; experiment: ELISA biotin-peptide; scFv 10 ug/mL; repII
Description: as §1, §3

[21] = target: T21, biotin-peptide DYGSESTSSM; experiment: ELISA biotin-peptide; scFv 10 ug/mL; repII
Description: as §1, §3

[22] = target: T22, biotin-peptide SESTSSMEDY; experiment: ELISA biotin-peptide; scFv 10 ug/mL; repII
Description: as §1, §3

[23] = target: T23, biotin-peptide TSSMEDYVNF; experiment: ELISA biotin-peptide; scFv 10 ug/mL; repII
Description: as §1, §3

[24] = target: T24, biotin-peptide SSMEDYVNFN; experiment: ELISA biotin-peptide; scFv 10 ug/mL; repII
Description: as §1, §3

[25] = target: T25, biotin-peptide SMEDYVNFNF; experiment: ELISA biotin-peptide; scFv 10 ug/mL; repII
Description: as §1, §3

[26] = target: T26, biotin-peptide MEDYVNFNFT; experiment: ELISA biotin-peptide; scFv 10 ug/mL; repII
Description: as §1, §3

[27] = target: T27, biotin-peptide YVNFNFTDFY; experiment: ELISA biotin-peptide; scFv 10 ug/mL; repII
Description: as §1, §3

[28] = target: T28, biotin-peptide TDFYCEKNNV; experiment: ELISA biotin-peptide; scFv 10 ug/mL; repII
Description: as §1, §3

[29] = target: T29, biotin-peptide YCEKNNVRQF; experiment: ELISA biotin-peptide; scFv 10 ug/mL; repII
Description: as §1, §3

[30] = target: T30, biotin-peptide KNNVRQFAS; experiment: ELISA biotin-peptide; scFv 10 ug/mL; repII
Description: as §1, §3

OD450 [1] [OD]	OD450 [2] [OD]	OD450 [3] [OD]	OD450 [4] [OD]	OD450 [5] [OD]	OD450 [6] [OD]	OD450 [7] [OD]	OD450 [8] [OD]	OD450 [9] [OD]	OD450 [10] [OD]	OD450 [11] [OD]	OD450 [12] [OD]	OD450 [13] [OD]	OD450 [14] [OD]	OD450 [15] [OD]	OD450 [16] [OD]	OD450 [17] [OD]	OD450 [18] [OD]	OD450 [19] [OD]	OD450 [20] [OD]	Binder	other results
0.03	0.05	0.02	0.02	0.02	0.02	0.02	0.03	0.09	0.03	0.04	0.01	0.03	0.03	0.07	0.04	0.1	0.12	0.05	0.09	Comparative antibody 2 (Comp-2) scFv, 243LO326 (VH SEQ ID NO: 51 and VL SEQ ID NO: 52 of WO 2022/195028 A2), His-tagged (scFv) scFv: QVQLVQSGAEVKKPGASVKVSCKASGYTFTSYWMHWVRQAPGQGLEWIGVIYPGNSDTRYNQKFKGRVTITRDTSASTAYMELSSLRSEDTAVYYCTRDYYSNYVYYYAMDYWGQGTTVTVSSGGGGSGGGGSGGGGSGGGGSDIVMTQTPLSLPVTPGEPASISCRSSQSLVHPNRNTYLHWYLQKPGQSPQLLIYKVSNRFSGVPDRFSGSGSGTDFTLKISRVEAEDVGVYYCSQSTHVPWTFGQGTKLEIKHHHHHH	OD450 [21]: 0.09 OD; OD450 [22]: 0.05 OD; OD450 [23]: 0.06 OD; OD450 [24]: 0.1 OD; OD450 [25]: 0.05 OD; OD450 [26]: 0.08 OD; OD450 [27]: 2.06 OD; OD450 [28]: 0.05 OD; OD450 [29]: 0.1 OD; OD450 [30]: 0.07 OD
0.04	0.08	0.04	0.04	0.04	0.03	0.04	0.03	0.08	0.07	0.06	0.01	0.07	0.04	0.03	0.04	0.13	0.11	1.69	1.47	Comparative antibody 3 (Comp-3) scFv, SR_92R (Somovilla-Crespo et al. 2018), His-tagged (scFv) scFv: EVKLEESGGGLVQPGGSMKLSCVASGFTFNKFWMNWVRQSPEKGLEWVAEIRLKSNNYATHYAESVKGRFTISRDDSKSSVYLQMNNLRAEDTGIYYCASDGWFAYWGQGTLVTVSAGGGGSGGGGSGGGGSGGGGSDVVMTQTPLSLPVSLGDQASISCRSSQSLVHSNGNTYLNWCLQRPGQSPKSLIYKVSNRFSGVPDRFSGSGSGTDFTLKISRVEAEDLGVYFCSQSTHFPRTFGGGTKLEIKRHHHHHH	OD450 [21]: 0.1 OD; OD450 [22]: 0.12 OD; OD450 [23]: 0.12 OD; OD450 [24]: 0.12 OD; OD450 [25]: 0.12 OD; OD450 [26]: 0.11 OD; OD450 [27]: 0.13 OD; OD450 [28]: 0.09 OD; OD450 [29]: 0.09 OD; OD450 [30]: 0.08 OD
